Test: soluble on expression in E. coli; label from the status in PepcDB or PDB records

Sequence | soluble on expression in E. coli
GPGSMPVPSYWRMACRSYQFTICATSYLLRWRAPAVTQGSGALVKLPHLVRGARLQRGLLVTDAMIMKLGLVDDFIDEMKKQGTELAIYKDVLPNPTIDMVEEASVLYRKNRCDYLVAVGGGSVMDCAKLIGVRQARPRTPLPYMRGLLRVLWPLPPLIAVPTTAGTGSECTIAAVVSDPAKKDKLVVMDPFLTPSHCVLDPALTLTLPKFVTATAGMDALTHVVEAYTNVFHYRTVDKAALRAMELLAKYLPCAYKDGSNLEAREKMLHASYLAGLSFTRAGVGNVHAAAHAVGGLYNAPHGYVNAVILPHVLDMYGSAAHKSLARLAEAANIVGANDAEKAVNFISWVREMNAQMQIPTTLGAGDSRWAPQEEDIPFLVKHAVTEANPFYAVPVIFGEEEMTELFRRVM | not soluble
GPGSMRNYNNFNRVWKAPRRPFEKERLDREMKLCGQYGLRCKREIWRVNMTLSKMRRTARLLLTLPENHPRRLLEGSAIMRRCHEYGFLDEEKDKLDYVLSLTVPDILERRLQTIVFKAGLAKSVHHARVLIQQRHIAVAKQIVTIPSFIVRVSSERHIAFADASPFGNGRAGRVKRVRAKAAKRHAGGGDDDE | not soluble
GPGSMRVDVEAVFEKIRPALEVAEVGAWSKTDITTFMSLVSGFCDIQRQQLRARRGKRRDGHDCEQNVDKEGGCEDGCGVRGEDGDKEDEASLEADSVVVLEIRRSLTKLRHYLQKRIPYGSISEPVVPPAPTSPQEGENSCGGRGAYKALQSSKPVEPPVCAVDAFLYLEEDIDALADQGHISREYCRSCGSVDIGLCQFITHSFSLEQLIFLSCFLLPSFGDTSYCLTSDNVWRPRHKNCHTVAAAFSCEHVVEVGSRLGIVPMSCYFASEQQRLLNTRRVTAIELDKELVALQQEVFQKFARGPTAAHLNLVHSDCFEGEGLEALRSADIIILHNIFEYFTASAEEHLRSWKRLRAAVVRSGQLLVCCPPLQETLAAFSEDCVRKVFINEQDKVDFVHVHQSNSNAGRISRKRCRQPPQEHSFTLDQWWRSWVKEIDVEHIRRSFLTAQRFCEEDHPCDSSYGDADDELVKELKDMRVYMVQ | not soluble
GPGSMSALWAQVRQTVESEWDKTIVPAISAYIEVPNQSPQFDPEWATNGLQEKAFGILIDWMNAQNVQGLTYDYITADGRTPFLLVEIAGTEPTNNTVLMYGHMDKQPPLRPWAEGLDPHKAVVRDGKLYGRGGADDGYALFAAVTAISSLQRHGIPHGRVVITIEAGEESGSPDLDYYMERCKERIGKVDLMVCLDSGSMNYSQVWLTTSLRGVAIGELTVQTLTESMHSGVAGGVVPDTFRITRELLSRIEDCKTGEVTIPEAHCEIPPNAVKAAEAMKTVPFKEQFAMAAGVATVPGDNVELAIQNFWKPSLTVTGANLPDPQIAGNVIRTHTTVKLSMRLPPLVKAEAALQAMKRILEADPPYGAKVAFKGVGAGNGCAAPELKPWLQEVLHEGSTEAFGNTYACQGMGGAIPFIGMLIDMYPEAQFVVTGLLGPQSNAHGPNEFLHIPYAKGLTYSIARVVAAHLHNTPK | soluble
GPGSMSDDTRYMYPARKAHAMDLGSSLNPEGDQKQTWGSVASVADAMSPTAEIKPSAPQVTHFGTGLGMQSSTGDPTLQEADSDGDKTEAVNEFDLAAYSKEDLTQTLHKRIMSRMFSAFDVTQVGYLDINKLKELCVYVGRNMSQEASEKMFDELKGIDGHITFDVFWNWWTTYPDTKMTKDTFSLVSADFSVPYHQQQLKIKDEGEIFTPSYRVKYYFKDMETGLRRRVSPWHDVPLYVRDPVRTKPENIRANRYNFICEIPKWTRAKFEIATGEPFNPIKQDIKNGVPRFYKHGDMMWNYGAFPQTWESTEVIFEDGVSGDNDPIDGVEIGMRQMRVGEIHPVRILGVLGMIDDGQMDWKVICMSVNDPVARFIKDIDDIPKFLPGCLDALREWFRVYKICQGGVENKFAFNGEYKDKTYAMKVVDESHYMWENLRKIKKKEEV | soluble
GPGSMSGAGNLRSNRRREMDYMRLCNSTRKVYPSDTVAEFWVEFKGPEGTPYEDGTWMLHVQLPSDYPFKSPSIGFCNRILHPNVDERSGSVCLDVINQTWTPMYQLENIFDVFLPQLLRYPNPSDPLNVQAAHLLHADRVGFDALLREHVSTHATPQKALESIPEAYRPHDNTHEEEPDEANAKDTASDGPVNAGHSKGLTDSSVTPTEDHRVMHDDIAIDGDEDVEAEYEPEEIDL | soluble
GPGSMSHSALAYAACPMCTRVVHMGQMLHHILSTHKEQDPAYWMRLCNARLALYERVTGAPLEGTETMRDACLAQATAAVAEAADSEAMVPGGLSLSTPLSTHDALRPFLPTVSETGTYTCNWCALRSVAFSSRDAFLLHVAKDHPKLDFDVVESLVPQPLTVSSRAARNEGTGTPAPRAPAAESDVTVSDSWTRQQRGGAGCVGAASNSHAAEGFDVAYPVRRMPGVRTVQDTNVVTVKPEVHQLGTSVGRVGRNAFDPAPISTGGRRSRAAVSASSTASATAVANDLHFDKDCFPCELCFRVFVSELNLLQHLESKHTNPTTLASVSDASVERAAPPGTASASSTAAASPSSVEVFVVCDRCTDRKKVFRSSSALFSHIRFRHPAEDAAYETERMIEEQRQSRVFQCPHCRYRHPDMTRLDTHMRDAHGVVGCAGEKTIRGGRVVSGTAQPHGSAELKTAQPSLFSALPPVTVRTRFWCSVCEKGFANASALYAHTESKHTTIASLYPCPACKREFRDVPSLESHVQLCHKNLSLKDMGLQSSVECPDCLRHFLNYESLHDHAVRHHGKSAIAPVRSFVTPVSASTAGEGVGVAAAVPVPGTSTDASGSTTSPLAVAAPPKPRKVTRRKKEPSTAATES | not soluble
GPGSMSRSKEPPLPEELRTRLGQMDGCATAESWESVGNECFSHGCHLSAIRCYTKALEKGSDTANLRSSRSAAYMKSSMFAGPSLALKDAERAAELEPGRCEAHLRVGDAQLARKKYAEAKAAYQKAIELDGSCTAATHALRIVERELFLRSLDEQKKFSPVTEKPSGENTGTTSTGSNAEGPLNMEEEIKKRIQLWAEDTTVREDRTAMRAFNARLDEADRQAGTKYKSELLLKFRGKMAAQEPFRRMVEERRDQEMRMGEGIDYRNADSYRAILTKGTDGVGLGISTDAYKSYKYESKMW | not soluble
GPGSMSVLVKGWGRGTCKINHIRDDDISSSESEGDDANVAVPLEELNVGTQHMITEEMRFRLRRKEKLSVQDDELGRLREAMRRQVFASGLLQPGQSAGVAPRRAEIIFSCAVEIQSSGLMEEAPTASPRVGDTSAWLKQLRKFILDRVPFQRSVRVMVPRTWLARAQETDVV | not soluble
GPGSMWALTCRPIQNTEALQLMERYKAHNALQSNQWLLPRHLACFAVRPLYPAQLVLPTSSVIRLPLSAVPFSSLPLSRKREVFGLYPPPCTPPGSCSLLECSGAAMRWRPASLSECFDAAFVRSDSPSSHQHLLCATDCAGSVTVAEEVTVFNAQETNNPFLVDADLVHRNLLTKEAYEHSIGSSLTTIAAQFRYTSFEWVEATAAAAVGLRVRSSAAPHLVNCVDMLRVVHISQLPYTRQQELVAEIPRMTLIKSMTISYIFYHTRWRHHKSMELMRPLLHSNIPCCDTPQAQALQPLLWIAVDLDMEFRGPVMECARHSRTQFYNSQQLEVDTCAVPSRS | soluble
GPGSMWVEAYRAGCAEVSADVREDVSSSGATGELIVRGNTFDNFKNRVTDTDVQAILAALRVCPGMSALYLPYNNITSEGGVLLGKALGHQLDSIITLDVQYNSLGAEAGVAIAQGLQRNDSLCHVTLAGNPLGGCCGAALGEALRQNMNLAVLDLFNTDLGMEALVHICRSLEGNKGLSSLNIGRPLLHGVDELESVVNHLSIALQRNSTLEELHMAYFGLVDDCLQTLVLALCGSAVTTLCIKGNKVSQDAGQLLARLLDRRQDFRNLDVSCNRLRDAGAAALAKGVAHHPQLESLGLESCTISERGLVVLVESLKSCATVRRLTLWGNDVTPAVASSLTATFCDLRELDYIDVGVMEQDGQLVAYRA | not soluble
